One block for each molecule: values may come before it.
How the values were obtained:
TGFb3 = molecular target: T1, TGFb3 (Homo sapiens, UniProt P10600); assay: ELISA binding of ligand to immobilized CLPTM1 peptide fragments; conditions: biotinylated peptide immobilized at 1 μM; ligand 100 ng/ml; OD 450-620 measured
T1 construct: purchased Abcam
T1 sequence (P10600 301-412 limits assumed): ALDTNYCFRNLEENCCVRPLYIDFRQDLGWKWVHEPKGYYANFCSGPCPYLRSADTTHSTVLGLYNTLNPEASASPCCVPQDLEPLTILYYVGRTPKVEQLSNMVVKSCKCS
Experimental: (§1) Biotinylated synthetic peptide fragments from CLPTM1 (JPT peptides, Germany) were immobilized in a streptavidin 96 well plate (#15500 Pierce) at 1 μM in PBS over night at +4° C. Plate was then washed 4 times in 300 μl PBS with 0.05% tween-20 (wash buffer). The plate was then blocked with PBS 1% BSA and 0.05% tween-20 (blocking buffer) for 1.5 hours at room temperature, then washed 4 times in wash buffer. Ligands GDF15, TGFb1, TGFb2 and TGFb3 (Abcam) were added in blocking buffer at 100 ng/ml and incubated at room temperature for 2 hours. The plate was then washed 8 times in 300 μL wash buffer with 2× NaCl. An anti-GDF15 antibody was added at 1 μg/ml (R&D Systems, goat polyclonal) or a pan-specific anti-TGFb antibody (R&D Systems, mouse 1 D11), and the plate incubated in blocking buffer for 1 hour at room temperature followed by washing with 4×300 μl wash buffer. HAF017 anti-goat-HRP antibody (to detect the anti-GDF15 antibody) or Santa Cruz sc-2005 Goat anti-mouse-HRP (to detect the pan-specific anti-TGFb antibody) was added and the plate incubated for 1 hour in blocking buffer followed by a wash. TMB substrate was added and stopped after 15 minutes with H2SO4. OD 450-620 was measured in an ELISA reader.

GDF15 = molecular target: T2, GDF15 (Homo sapiens, UniProt Q99988); assay: as above; conditions: biotinylated peptide immobilized at 1 μM; ligand 100 ng/ml; OD 450-620 measured
T2 construct: purchased Abcam
T2 sequence (Q99988 195-308): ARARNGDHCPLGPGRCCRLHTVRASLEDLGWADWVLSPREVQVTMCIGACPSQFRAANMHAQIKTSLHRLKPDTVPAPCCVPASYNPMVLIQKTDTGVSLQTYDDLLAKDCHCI
Experimental: as §1

TGFb1 = molecular target: T3, TGFb1 (Homo sapiens, UniProt P01137); assay: as above; conditions: biotinylated peptide immobilized at 1 μM; ligand 100 ng/ml; OD 450-620 measured
T3 construct: purchased Abcam
T3 sequence (P01137 279-390 limits assumed): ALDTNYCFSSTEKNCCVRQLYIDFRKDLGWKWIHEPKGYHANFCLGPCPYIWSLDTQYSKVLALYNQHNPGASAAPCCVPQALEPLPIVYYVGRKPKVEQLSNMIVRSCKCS
Experimental: as §1

TGFb2 = molecular target: T4, TGFb2 (Homo sapiens, UniProt P61812); assay: as above; conditions: biotinylated peptide immobilized at 1 μM; ligand 100 ng/ml; OD 450-620 measured
T4 construct: purchased Abcam
T4 sequence (P61812 303-414 limits assumed): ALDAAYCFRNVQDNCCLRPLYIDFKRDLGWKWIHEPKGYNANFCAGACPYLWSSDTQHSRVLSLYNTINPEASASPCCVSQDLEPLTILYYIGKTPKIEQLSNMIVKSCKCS
Experimental: as §1

M2 polarized macrophages = assay: isPLA of TBK1 after ligand stimulation; type: cell-based, human; conditions: 10 ng/ml o/n, vs untreated control
Experimental: Human primary M2 polarized macrophages was derived from PBMC obtained from healthy volunteer blood donors. CD14+ cells were isolated using an EasySep CD14 Positive Selection Kit, maintained in RPMI-1640 medium supplemented with 10% FBS, L-Glutamine and Pen-strep. Cells were cultivated for 6 days in the presence of 50 ng/ml recombinant macrophage colony-stimulating factor (M-CSF, R&D Systems) in order to polarize the cells towards an M2 subtype.
For in situ proximity ligation assay (isPLA) experiments the cells were re-plated into 8-well slides (Lab-Tek™ II Chamber Slides, Thermo Fisher).
Cells were stimulated with either TGFB1, TGFB2, TGFB3 at 10 ng/ml. For isPLA, new medium was added, with individual ligands added to separate wells, and the cells incubated o/n prior to fixation in 3% formaldehyde solution for 20 minutes on ice the following day. Fixed cells were washed extensively in PBS and lysed in PBS with 1% Triton at room temperature for 20 minutes. The cells were blocked with Duolink blocking solution (Sigma) and primary antibodies at 1 μg/ml were added o/n. […] The slides were analysed using a Zeiss inverted epiflouroscence microscope set at 20× magnification. DAPI, FITC and CY3.5 channels were recorded. […]

TGF-β proteins = assay: ELISA of Example 1, binding; conditions: result in words
Experimental: as §1

MCF7 breast cancer cells = assay: Western blot of PTP1B after ligand stimulation; type: cell-based, human; conditions: ligand 10 ng/ml, vs untreated control
PBMC = assay: Proseek secreted proteins, PBMC culture; type: cell-based
Experimental: (§2) Secreted proteins from cell cultures where quantified using multiplexed proximity extension assay, Proseek (Assarsson E et al PlosOne 2014) by Olink Proteomics AB (Uppsala Sweden). Data is presented as Normalized Protein Expression (NPX log 2-scale). The Oncology I v2 92-plex panel was run.
A cell suspension of heparinized peripheral blood was diluted 1:1 and placed on a Ficoll Paque Plus. Cells were centrifuged at 400×g for 30 minutes and the PBMC layer was transferred to a 50 ml tube of PBS and centrifuged for 7 min at 250×g.

NK-92 cells = assay: Proseek secreted proteins, NK-92 culture; type: cell-based; conditions: NK92 culture
Experimental: as §2, with “run. NK-92 cells were cultured in RPMI-1640 supplemented with 10% FBS, 12.5% Horse serum, L-glutamine, IL2 and 3-mercaptoethanol.” for “run.”

MCF7 cells = assay: Proseek secreted proteins, MCF7 culture; type: cell-based, human; conditions: FIG. 6A: exosomes from MCF7 cells, GDF15 1.5 μg/ml 1 hr
Experimental: Secreted proteins from cell cultures where quantified using multiplexed proximity extension assay, Proseek (Assarsson E et al PlosOne 2014) by Olink Proteomics AB (Uppsala Sweden). Data is presented as Normalized Protein Expression (NPX log 2-scale). The Oncology I v2 92-plex panel was run. MCF7 cells were cultured in serum-free conditions (No FBS added to DMEM) overnight prior to ligand stimulation, and media was replaced 3 times before stimulation to avoid exosomes from FBS. Cells were either treated with control (PBS) or biologically active GDF15 (Abcam) at 1.5 μg/ml for 1 hr at 37° C. For analyses of exosomes in FIG. 6A, conditioned medium was pre-cleared by centrifugation at 14,000×g for 10 min at 4° C., followed by filtration with a […] filter to avoid contaminants from cell debris, followed by ultracentrifugation at 100,000×g for 2 hrs. Pelleted exosome fraction was lysed with 1% Triton X-100 at 4° C., samples diluted in order to have 0.3% Triton concentration and analysed by Proseek multiplex panel as described above.

Molecule: ARSAVVAAGGGSSGQVTSNGSIGRDPPAETQPQNPPAQPA (listed as Homo sapiens) [SEQ ID NO: 34]
ELISA OD450 TGFb3 (TGFb3): 0.018
ELISA OD450 GDF15 (GDF15): 0.220
ELISA OD450 TGFb1 (TGFb1): 0.043
ELISA OD450 TGFb2 (TGFb2): 0.025

Molecule: TGFb1: TGF-β isoform 1, ligand for CLPTM1
TBK1 level (M2 polarized macrophages): reduced

Molecule: TKSGFHPDPRQKALYRRLATVHMSRMINKYKRRRFQKTKN (listed as Homo sapiens) [SEQ ID NO: 37]
ELISA OD450 TGFb3 (TGFb3): 0.041
ELISA OD450 GDF15 (GDF15): 0.055
ELISA OD450 TGFb1 (TGFb1): 0.015
ELISA OD450 TGFb2 (TGFb2): 0.009
binding to TGF-β proteins (TGF-β proteins): binding has also been observed

Molecule: LDQYVKFDAVSGDYYPIIYFG (listed as Homo sapiens) [SEQ ID NO: 21]
ELISA OD450 TGFb3 (TGFb3): 0.020
ELISA OD450 GDF15 (GDF15): 0.034
ELISA OD450 TGFb1 (TGFb1): 0.022
ELISA OD450 TGFb2 (TGFb2): 0.002
binding to TGF-β proteins (TGF-β proteins): binding

Molecule: KALYRRLATVHMSRMINKYKG (listed as Homo sapiens) [SEQ ID NO: 17]
ELISA OD450 TGFb3 (TGFb3): 0.0060
ELISA OD450 GDF15 (GDF15): 0.042
ELISA OD450 TGFb1 (TGFb1): 0.026
ELISA OD450 TGFb2 (TGFb2): 0.013
binding to TGF-β proteins (TGF-β proteins): binding

Molecule: PLDQYVKFDAVSGDYYPIIYFNDYWNLQKDYYPINESLA (listed as Homo sapiens) [SEQ ID NO: 39]
ELISA OD450 TGFb3 (TGFb3): 0.300
ELISA OD450 GDF15 (GDF15): 0.779
ELISA OD450 TGFb1 (TGFb1): 2.102
ELISA OD450 TGFb2 (TGFb2): 1.630
binding to TGF-β proteins (TGF-β proteins): favourable binding

B1: TGFb3: TGF-β isoform 3, ligand for CLPTM1 (protein)
chain: T1 sequence (P10600 301-412 limits assumed)
PTP1B level (MCF7 breast cancer cells): significantly reduced
CXCL9 secretion (PBMC): reduced
CXCL11 secretion (PBMC): reduced
Caspase-3 secretion (NK-92 cells): increased

B2: GDF15: Growth and Differentiation Factor 15, TGF-β superfamily ligand of CLPTM1 (protein)
chain: ARNGDHCPLGPGRCCRLHTVRASLEDLGWADWVLSPREVQVTMCIGACPSQFRAANMHAQIKTSLHRLKPDTVPAPCCVPASYNPMVLIQKTDTGVSLQTYDDLLAKDCHCI
HB-EGF secretion (PBMC): increased
IFNγ expression (PBMC): reduced
Midkine (MK) expression (MCF7 cells): increased

More lines, now with the values ahead:

ELISA OD450 TGFb3 (TGFb3): 0.007
ELISA OD450 GDF15 (GDF15): 0.021
ELISA OD450 TGFb1 (TGFb1): 0.177
ELISA OD450 TGFb2 (TGFb2): 0.009
binding to TGF-β proteins (TGF-β proteins): favourable binding
Molecule: SGDYYPIIYFNDYWNLQKDYYPINESLA (listed as Homo sapiens) [SEQ ID NO: 40]

ELISA OD450 TGFb3 (TGFb3): 0.091
Molecule: 38 (VSGDYYPIIYFNDYWNLQKDYYPINESLASLPLRVSFC; listed as Homo sapiens) [compound 38]

ELISA OD450 TGFb3 (TGFb3): 0.011
ELISA OD450 GDF15 (GDF15): 0.033
ELISA OD450 TGFb1 (TGFb1): 0.013
ELISA OD450 TGFb2 (TGFb2): 0.008
Molecule: LWRWQLYAAQSTKSPWNFLGDELYEQSDEEQDSVKVALLETNP (listed as Homo sapiens) [SEQ ID NO: 33]

ELISA OD450 TGFb3 (TGFb3): 0.065
ELISA OD450 GDF15 (GDF15): 0.140
ELISA OD450 TGFb1 (TGFb1): 0.152
ELISA OD450 TGFb2 (TGFb2): 0.019
binding to TGF-β proteins (TGF-β proteins): binding
Molecule: GDYYPIIYFNDYWNLQKDYYG (listed as Homo sapiens) [SEQ ID NO: 28]

ELISA OD450 TGFb3 (TGFb3): 0.029
ELISA OD450 GDF15 (GDF15): 0.061
ELISA OD450 TGFb1 (TGFb1): 0.032
ELISA OD450 TGFb2 (TGFb2): 0.014
binding to TGF-β proteins (TGF-β proteins): favourable binding
Molecule: VSGDYYPIIYFNDYWNLQKDYYPINESLASLPLRVSFC (listed as Homo sapiens) [SEQ ID NO: 38]

ELISA OD450 TGFb3 (TGFb3): 0.019
ELISA OD450 GDF15 (GDF15): 0.023
ELISA OD450 TGFb1 (TGFb1): 0.010
ELISA OD450 TGFb2 (TGFb2): 0.006
binding to TGF-β proteins (TGF-β proteins): binds
Molecule: DTLMNLHVYISEHEHFTDFNATSALFWEQHDLVYGDWTSG (listed as Homo sapiens) [SEQ ID NO: 36]

ELISA OD450 TGFb3 (TGFb3): 0.095
Molecule: 36 (DTLMNLHVYISEHEHFTDFNATSALFWEQHDLVYGDWTSG; listed as Homo sapiens) [compound 36]

ELISA OD450 TGFb3 (TGFb3): 0.014
ELISA OD450 GDF15 (GDF15): 0.022
ELISA OD450 TGFb1 (TGFb1): 0.010
ELISA OD450 TGFb2 (TGFb2): 0.007
binding to TGF-β proteins (TGF-β proteins): favourable binding
Molecule: SGDYYPIIYFNDYWNLQKDYYPINESLASLPLRVSFCPLS (listed as Homo sapiens) [SEQ ID NO: 32]

ELISA OD450 TGFb3 (TGFb3): 0.068
ELISA OD450 GDF15 (GDF15): 0.098
ELISA OD450 TGFb1 (TGFb1): 0.011
ELISA OD450 TGFb2 (TGFb2): 0.005
binding to TGF-β proteins (TGF-β proteins): binding
Molecule: YPINESLASLPLRVSFCPLSG (listed as Homo sapiens) [SEQ ID NO: 27]

ELISA OD450 TGFb3 (TGFb3): 0.151
ELISA OD450 GDF15 (GDF15): 0.507
ELISA OD450 TGFb1 (TGFb1): 1.536
ELISA OD450 TGFb2 (TGFb2): 0.164
Molecule: NAWQVIKGVLFRIFIIWAISSWFRRGPAPQDQAGPGGA (listed as Homo sapiens) [SEQ ID NO: 35]

Source: patent US11406665B2, “Therapeutic peptides that target TGF-beta interaction” (GENAGON THERAPEUTICS AB, priority 2017, dated 2022)
